According to article PMC3522573 (Oncogene, 2012):

Columns and labels:
Test in all cases: two-hybrid
Gal4(DBD)-Neh6^ΔDSAPGS = biological target: T1, Gal4(DBD)-Neh6^ΔDSAPGS (mouse, UniProt Q60795 300-380, Δ373-378 (called ΔDSAPGS))
T1 sequence (looked up): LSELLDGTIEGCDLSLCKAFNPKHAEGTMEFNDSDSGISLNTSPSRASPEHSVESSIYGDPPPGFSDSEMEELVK

Gal4(DBD)-Neh6^ΔSDSGIS = biological target: T2, Gal4(DBD)-Neh6^ΔSDSGIS (mouse, UniProt Q60795 300-380, Δ333-338 (called ΔSDSGIS))
T2 sequence (looked up): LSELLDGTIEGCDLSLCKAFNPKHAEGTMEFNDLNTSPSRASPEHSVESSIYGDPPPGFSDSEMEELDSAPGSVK

Gal4(DBD)-Neh6 = biological target: T3, Gal4(DBD)-Neh6 (mouse, UniProt Q60795 300-380)
T3 sequence (looked up): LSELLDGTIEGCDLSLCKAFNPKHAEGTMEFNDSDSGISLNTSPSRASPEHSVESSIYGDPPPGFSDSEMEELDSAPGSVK

fold increase in Gal4-driven luciferase activity with GSK-3β^Δ9 co-expressed (Gal4(DBD)-Neh6^ΔDSAPGS): 3.1 fold
fold increase in Gal4-driven luciferase activity over either fusion alone (Gal4(DBD)-Neh6^ΔSDSGIS): 1.5 fold
fold increase in Gal4-driven luciferase activity over either fusion alone (Gal4(DBD)-Neh6): ~3.2 fold
fold increase in Gal4-driven luciferase activity with GSK-3β^Δ9 co-expressed (Gal4(DBD)-Neh6): 4 fold
B1: Gal4(AD)-WD40 (domain or fragment, mouse, UniProt Q3ULA2 303-581, looked up)
chain: SKGVYCLQYDDQKIVSGLRDNTIKIWDKSTLECKRILTGHTGSVLCLQYDERVIITGSSDSTVRVWDVNAGEMLNTLIHHCEAVLHLRFNNGMMVTCSKDRSIAVWDMASPTDITLRRVLVGHRAAVNVVDFDDKYIVSASGDRTIKVWNTSTCEFVRTLNGHKRGIACLQYRDRLVVSGSSDNTIRLWDIECGACLRVLEGHEELVRCIRFDNKRIVSGAYDGKIKVWDLMAALDPRAPAGTLCLRTLVEHSGRVFRLQFDEFQIVSSSHDDTILIWD
